According to article PMC7794297:

Substrate: OC[C@H]1O[C@@H](O)[C@H](O)[C@@H](O)[C@@H]1O
Assay: GOx activity assay, glucose oxidase-horseradish peroxidase coupled system with o-dianisidine
Type: biochemical, Aspergillus niger
Conditions: other: control, glucose conversion; 37.0 °C

B1: glucose oxidase (GOx) (Aspergillus niger) (protein)
chain: LPHYIRSNGIEASLLTDPKDVSGRTVDYIIAGGGLTGLTTAARLTENPNISVLVIESGSYESDRGPIIEDLNAYGDIFGSSVDHAYETVELATNNQTALIRSGNGLGGSTLVNGGTWTRPHKAQVDSWETVFGNEGWNWDNVAAYSLQAERARAPNAKQIAAGHYFNASCHGVNGTVHAGPRDTGDDYSPIVKALMSAVEDRGVPTKKDFGCGDPHGVSMFPNTLHEDQVRSDAAREWLLPNYQRPNLQVLTGQYVGKVLLSQNGTTPRAVGVEFGTHKGNTHNVYAKHEVLLAAGSAVSPTILEYSGIGMKSILEPLGIDTVVDLPVGLNLQDQTTATVRSRITSAGAGQGQAAWFATFNETFGDYSEKAHELLNTKLEQWAEEAVARGGFHNTTALLIQYENYRDWIVNHNVAYSELFLDTAGVASFDVWDLLPFTRGYVHILDKDPYLHHFAYDPQYFLNELDLLGQAAATQLARNISNSGAMQTYFAGETIPGDNLAYDADLSAWTEYIPYHFRPNYHGVGTCSMMPKEMGGVVDNAARVYGVQGLRVIDGSIPPTQMSSHVMTVFYAMALKISDAILEDYASMQ
notes: purchased Sigma Aldrich
  Km: 15 ± 2 mM
  kcat: 0.00233 ± 0.00017 s⁻¹
